This experiment addresses TNF-α (WEHI-13VAR cytotoxicity assay of Example 2).

As for cycloalkyne-modified adalimumab Fab′, the IC50 (read off the curve) [lower panel] came out at 0.5 µg/mL and the IC50 (read off the curve) [upper panel] turned out to be 0.3 µg/mL.

The values are drawn from patent US20160024226A1.
